According to IntAct's records for PubMed 23954233:

B1: F-box DNA helicase 1 (Homo sapiens), Q8NFZ0 (parent)
chain: MRRFKRKHLTAIDCQHLARSHLAVTQPFGQRWTNRDPNHGLYPKPRTKRGSRGQGSQRCIPEFFLAGKQPCTNDMAKSNSVGQDSCQDSEGDMIFPAESSCALPQEGSAGPGSPGSAPPSRKRSWSSEEESNQATGTSRWDGVSKKAPRHHLSVPCTRPREARQEAEDSTSRLSAESGETDQDAGDVGPDPIPDSYYGLLGTLPCQEALSHICSLPSEVLRHVFAFLPVEDLYWNLSLVCHLWREIISDPLFIPWKKLYHRYLMNEEQAVSKVDGILSNCGIEKESDLCVLNLIRYTATTKCSPSVDPERVLWSLRDHPLLPEAEACVRQHLPDLYAAAGGVNIWALVAAVVLLSSSVNDIQRLLFCLRRPSSTVTMPDVTETLYCIAVLLYAMREKGINISNRIHYNIFYCLYLQENSCTQATKVKEEPSVWPGKKTIQLTHEQQLILNHKMEPLQVVKIMAFAGTGKTSTLVKYAEKWSQSRFLYVTFNKSIAKQAERVFPSNVICKTFHSMAYGHIGRKYQSKKKLNLFKLTPFMVNSVLAEGKGGFIRAKLVCKTLENFFASADEELTIDHVPIWCKNSQGQRVMVEQSEKLNGVLEASRLWDNMRKLGECTEEAHQMTHDGYLKLWQLSKPSLASFDAIFVDEAQDCTPAIMNIVLSQPCGKIFVGDPHQQIYTFRGAVNALFTVPHTHVFYLTQSFRFGVEIAYVGATILDVCKRVRKKTLVGGNHQSGIRGDAKGQVALLSRTNANVFDEAVRVTEGEFPSRIHLIGGIKSFGLDRIIDIWILLQPEEERRKQNLVIKDKFIRRWVHKEGFSGFKRYVTAAEDKELEAKIAVVEKYNIRIPELVQRIEKCHIEDLDFAEYILGTVHKAKGLEFDTVHVLDDFVKVPCARHNLPQLPHFRVESFSEDEWNLLYVAVTRAKKRLIMTKSLENILTLAGEYFLQAELTSNVLKTGVVRCCVGQCNNAIPVDTVLTMKKLPITYSNRKENKGGYLCHSCAEQRIGPLAFLTASPEQVRAMERTVENIVLPRHEALLFLVF

Variants of: B1
Conditions: with src_human SRC
With I1030F the “effect of a mutation on the interaction” value was “disrupting interaction”.

Variants of: B1
Conditions: with src_human SRC
Remark: another data set of the same source
G774R was tested, and the “effect of a mutation on the interaction” value was “decreasing interaction”.
